Data on 2 molecules can be found in PMC10908866, “A structural and dynamic visualization of the interaction between MAP7 and microtubules” (Nature Communications, 2024).

First the molecules themselves.
B2: MAP7 microtubule-binding domain (MTBD), residues 59-170 (domain or fragment, human, UniProt Q14244 59-170, looked up)
chain: PVLRVDDRQRLARERREEREKQLAAREIVWLEREERARQHYEKHLEERKKRLEEQRQKEERRRAAVEEKRRQRLEEDKERHEAVVRRTMERSQKPKQKHNRWSWGGSLHGSP
notes: Uniformly [13C-15N] labelled in the NMR experiments; The deposited model PDB 8RC1 holds only a poly-alanine backbone of residues 63-151; also called MAP7 MTBD; MT-associated protein 7 MTBD; not shown: His-Tag, N-terminal, cleaved

In assay [1] the target is B2. Briefly: fluorescence polarisation; fluorescence anisotropy; 1 µM NHS-fluorescein-labelled α-CTT, MAP7 MTBD 200 to 0 µM, 384-well plate; 40 mM NaPi pH 6.5, 150 mM NaCl, 1 mM DTT; fit with DynaFit. To be noted: both partners purified. In general terms: In fluorescence polarisation assays a small probe gives low polarisation when free and higher when bound to something large.

Assay [2] deals with T1, microtubules polymerised from porcine brain α/β-tubulin (porcine, UniProt P02550 1-451; P02554 1-445).
T1 construct: α-tubulin of porcine brain tubulin; β-tubulin of porcine brain tubulin; Polymer of α/β-tubulin heterodimers (13 or 14 protofilaments in cryo-EM); Brain tubulin is a mixture of isotypes; For ITC and NMR samples the methods say only 'lyophilized tubulin (Cytoskeleton)' without species; also called MTs; MT; source: bought: Cytoskeleton (porcine brain tubulin, Cat No. T240; lyophilized tubulin), …
T1 sequence (P02550 whole entry, chain 1 of 2): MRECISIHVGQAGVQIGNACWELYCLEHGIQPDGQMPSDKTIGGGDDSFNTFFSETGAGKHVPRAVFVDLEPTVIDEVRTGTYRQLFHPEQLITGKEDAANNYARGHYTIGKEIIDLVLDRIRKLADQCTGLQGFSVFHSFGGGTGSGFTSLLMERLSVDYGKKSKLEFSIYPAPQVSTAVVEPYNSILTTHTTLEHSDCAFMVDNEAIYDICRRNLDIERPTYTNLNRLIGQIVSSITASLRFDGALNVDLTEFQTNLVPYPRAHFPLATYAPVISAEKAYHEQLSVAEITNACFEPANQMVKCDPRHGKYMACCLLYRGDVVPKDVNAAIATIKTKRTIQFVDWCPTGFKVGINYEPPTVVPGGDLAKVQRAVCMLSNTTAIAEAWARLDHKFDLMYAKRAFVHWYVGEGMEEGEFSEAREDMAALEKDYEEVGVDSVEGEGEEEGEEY
T1 sequence (P02554 whole entry, chain 2 of 2): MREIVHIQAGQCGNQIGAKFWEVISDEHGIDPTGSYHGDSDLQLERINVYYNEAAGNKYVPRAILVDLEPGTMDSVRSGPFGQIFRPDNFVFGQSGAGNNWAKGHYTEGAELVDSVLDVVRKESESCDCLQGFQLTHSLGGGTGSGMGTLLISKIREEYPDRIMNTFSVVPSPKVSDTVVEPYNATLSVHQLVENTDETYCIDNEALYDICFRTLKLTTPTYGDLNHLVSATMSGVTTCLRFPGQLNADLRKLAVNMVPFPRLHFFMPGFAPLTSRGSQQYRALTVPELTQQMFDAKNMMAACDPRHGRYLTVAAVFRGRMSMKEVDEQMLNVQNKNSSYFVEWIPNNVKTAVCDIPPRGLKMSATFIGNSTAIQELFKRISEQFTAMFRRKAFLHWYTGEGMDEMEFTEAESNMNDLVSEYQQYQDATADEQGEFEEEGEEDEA
Nature of the assay: ITC; 150 µM MAP7 MTBD titrated in 2 µL steps to 164 µL of 15 µM Taxol-stabilized MT; 37 °C; NMR buffer (40 mM NaPi pH 6.5, 150 mM NaCl) with 1 mM β-ME and 1 mM GTP; duplicates. To be noted: both partners purified. A general note: ITC needs no label: the signal is the heat of the interaction.

Where no end group is shown, it is not given here.

B1: NHS-fluorescein-labelled α-tubulin C-terminal tail peptide (peptide)
peptide: SVEGEGEEEGEEY
modifications: also: NHS-fluorescein attached, position not given here
notes: C-terminal tail of HeLa S3 α-tubulin, residues Ser 439-Tyr 451; also called fluorescein labelled α-CTT; NHS-fluorescein-labelled α-CTT; source: synthetic peptide, bought: Sigma-Aldrich; labelled with NHS-fluorescein and dialysed
Broadly, the Kd is the constant that tells how readily two partners part at equilibrium. A high value points to lower affinity. B1 returned a dissociation constant (Kd) in assay [1] of 91.3 µM.

As a reminder, the stoichiometry N is the number of molecules, sites or subunits per partner or assembly. On to B2, for which, in assay [2], the Kd came to 0.94 µM and the “stoichiometry N” value was found to be 0.51 ± 0.09.
